Measured values from US6372211B1, “Methods and compositions for controlling insects” (Monsanto Technolgy LLC, priority 1997, dated 2002).

Experiments:
[1] = tested on: Trichoderma sp. F22844 L-lysine oxidase (Mr 56,000 protein, E.C. 1.4.3.14), native; proprotein SEQ ID NO:46; settings: read-out: Km for lysine; lysine oxidase from F22844
T. viride lysine oxidase [2] = settings: read-out: Km for lysine, reported, Kusakabe et al., 1980; cited from earlier work
Mr 50,000 protein = Mr 50,000 protein assay (hydrogen peroxide colorimetric); type: biochemical, Trichoderma sp.; settings: hydrogen peroxide formation monitored
Procedure: Hydrogen peroxide appears to be the byproduct of the Mr 50,000 protein reaction. The formation of hydrogen peroxide was monitored by a colorimetric assay (Gallo, 1981). P2C was prepared by two separate methods for the initial Mr 50,000 protein assay. The two methods used for preparing P2C were
1) L-lysine with lysine oxidase and catalase; and
2) DL-pipecolic acid with D-amino acid oxidase and catalase.
P2C was isolated from the protein mixture by filtration using an Amicon filter (10 kDa cutoff) before using in the Mr 50,000 protein assay.

F22844 lysine oxidase = assay: Substrate specificity of F22844 lysine oxidase; type: biochemical, Trichoderma sp.; settings: lysine = 100, L-isomers
T. viride lysine oxidase [3] = settings: data from Kusakabe et al., 1980; cited from earlier work
southern corn rootworm = assay: Southern corn rootworm artificial diet bioassay; type: in vivo; settings: for Mean larval wt. (mg) (+SEM) / # of survivors: Table 12, SCRW neonate, T. viride lysine oxidase 10 ppm, E. coli produced Mr 50,000 18 ppm; for Mean larval wt. (mg) (+SEM): buffer 0.68, 0.57; for # of survivors: buffer 51, 52
Procedure: These proteins were then purified by sizing and ion exchange chromatography. […] In both cases, no bioactivity was detected when the proteins were assayed individually but significant stunting was seen when the proteins were combined in assay.
Native-PAGE studies were effective in confirming that the Mr 56,000 and Mr 50,000 proteins were responsible for the southern corn rootworm bioactivity of F22844. The chromatographically purified Mr 56,000 and Mr 50,000 proteins were further purified by native PAGE. […] A sample containing a combination of the two proteins at concentrations of 9.7 μg/mL of Mr 56,000 and 2.5 μg/mL of Mr 50,000 yielded 89% stunting of corn rootworm larvae (Table 3). […]
(§1) These leads were not characterized further. […] Lysine oxidase from Trichoderma viride is available commercially from Sigma (St. Louis, Mo.). The enzyme was purified to a single band from this preparation and bioassayed against southern corn rootworm. Bioassays were conducted to compare the concentration responses of the T. viride lysine oxidase (±Mr 50,000 protein from F22844) with the lysine oxidase purified from F22844. The bioactivity of the T viride lysine oxidase agrees very well with the bioactivity of lysine oxidase from F22844 when bioassayed in the presence of tedanalactam synthase from F22844 (Table 10). Very similar stunting levels are seen at equivalent doses (compare Table 10 to Table 7). In addition, no bioactivity is seen with either lysine oxidase in the absence of tedanalactam synthase from F22844.
An NcoI-HindIII fragment containing the full length tedanalactam synthase cDNA gene (SEQ ID NO:40) from pMON25424 was interested into pMON6235, an E. coli expression vector containing an arabinose inducible promoter and G10 leader sequence to produce pMON25428 (FIG. 12). […] The relative migration of the expressed protein on SDS-PAGE was identical to the F22844 purified tedanalactam synthase. The recombinant tedanalactam synthase was purified in a 5 step procedure from E. coli expressing the tedanalactam synthase gene. Lysine oxidase was purified from a commercial preparation of T. viride lysine oxidase. Both the lysine oxidase and tedanalactam synthase were >95% pure by SDS-PAGE.

[4] = Lysine oxidase enzymatic assay of enzyme preparations; type: biochemical; settings: purified lysine oxidase
Procedure: F22844 was identified taxonomically as a Trichoderma species.
(§2) Yeast (Saccharomyces cerevisiae) transformed with pMON25030 were grown in the presence of galactose and shown to produce enzymatically active lysine oxidase. Yeast transformed with pMON25030 had soluble lysine oxidase activity in both disrupted cell pellets and cell free culture media. […] Lysine oxidase from the yeast culture media was subsequently purified and shown to have bioactivity against corn rootworm when combined with tedanalactam synthase.

corn rootworm = assay: Corn rootworm bioassay (species not stated); type: in vivo, Diabrotica spp.; settings: Table 11, yeast recombinant lysine oxidase 14 ppm, F22844 Mr 50,000 10 ppm, alone or combined; for # of survivors: 16 wells/sample, buffer 61, 45; for Mean larval wt. (mg) (±SEM): buffer 0.94, 0.84
Procedure: as §1, §2

[5] = tested on: proteases present in the midgut of southern corn rootworm; assay: Activation of LO69 proenzyme by midgut extract; type: biochemical
Description: The lysine oxidase gene encodes a 69 kDa proenzyme which is N-terminally cleaved when expressed in Trichoderma or Saccharomyces to yield a mature and enzymatically active protein of approximately 60 kDa. To determine if the lysine oxidase-69 (LO69) proenzyme (Seq ID NO: 46) expressed in corn protoplasts can be activated by the proteases present in the midgut of southern corn rootworm, midguts were dissected from late instar larvae and the proteases extracted. Protease activity assays confirmed the presence of proteases in this extract. This extract and appropriate controls were incubated for about 22 hours at 25° C. with extracts from protoplasts electroporated with pMON25040 (i.e. the CaMV35S promoter and hsp70 intron fused to the 1.9 kb lysine oxidase gene encoding the Mr 69,000 proprotein, SEQ ID NO:45) and non-electroporated controls and assayed for lysine oxidase activity.

[6] = tested on: southern corn rootworm larvae; assay: Diet overlay assay with SCRW; type: in vivo; settings: for Av. Wght: Tris control 2.6
Description: However, ingestion of LO69 expressing root tissue by CRW is likely to result in activation of lysine oxidase by proteolysis and subsequent insecticidal activity when the tedanalactam synthase protein is also present. […] The absence of LO activity in the proenzyme sample was confirmed by direct enzymatic assays just prior to exposure to insects.

[7] = Table 2a, Mr 56,000 10 μg/mL, Mr 50,000 1.5 μg/mL, alone or combined, NSS = not statistically significant
[8] = Table 3, native PAGE purified, Mr 56,000 9.7 μg/mL, Mr 50,000 2.5 μg/mL, alone or combined
[9] = second table headed TABLE 2a, Mr 56,000 10 μg/mL, Mr 50,000 1.5 μg/mL, NSS = not statistically significant
[10] = each protein at 2 ppm, of larval weight vs control
[11] = single protein at 10 ppm, 50 kD activity ascribed to low level LO contamination

In the case of `NCCCC[C@H](N)C(=O)O` [lysine], the Km [1] is listed as 26 µM and the Km (T. viride lysine oxidase [2]) is listed as 40 µM.

With `O=C(O)C1CCCCN1` (centres unmarked) [Pipecolic acid] the “substrate of Mr 50,000 protein” value (Mr 50,000 protein) was “not substrates”.

In the case of `N[C@@H](Cc1c[nH]cn1)C(=O)O` [Histidine], the “Relative activity (%)” value (F22844 lysine oxidase) is listed as 5.0% and the “Relative activity (%)” value (T. viride lysine oxidase [3]) is listed as 3.8%.

In the case of `N[C@@H](Cc1ccccc1)C(=O)O` [Phenylalanine], the “Relative activity (%)” value (F22844 lysine oxidase) is given as 6.6% and the “Relative activity (%)” value (T. viride lysine oxidase [3]) is given as 8.3%.

In the case of `NCCCC[C@H](N)C(=O)O` [Lysine], the “Relative activity (%)” value (F22844 lysine oxidase) is given as 100.0%, the “substrate of Mr 50,000 protein” value (Mr 50,000 protein) is given as “not substrates” and the “Relative activity (%)” value (T. viride lysine oxidase [3]) is given as 100%.

For `NCCC[C@H](N)C(=O)O` [Ornithine], the “Relative activity (%)” value (F22844 lysine oxidase) is given as 10.8% and the “Relative activity (%)” value (T. viride lysine oxidase [3]) is given as 18.2%.

For `N=C(N)NCCC[C@H](N)C(=O)O` [Arginine], the “Relative activity (%)” value (F22844 lysine oxidase) is listed as 2.6% and the “Relative activity (%)” value (T. viride lysine oxidase [3]) is listed as 6.1%.

With `O=C(O)C1CCCC=N1` (centres unmarked) [P2C, Δ^1-piperideine-2-carboxylate] the “substrate of Mr 50,000 protein” value (Mr 50,000 protein) was “catalyses the conversion of Δ^1-piperideine-2-carboxylate (P2C) to product I”.

B1: L-lysine oxidase (protein)
chain: MDNVDFAESVRTRWARRLIREKVAKELNILTERLGEVPGIPPPNEGRFLGGGYSHDNLPSDPLYSSIKPALLKEAPRAEEELPPRKVCIVGAGVSGLYIAMILDDLKIPNLTYDIFESSSRTGGRLYTHHFTDAKHDYYDIGAMRYPDIPSMKRTFNLFKRTGMPLIKYYLDGENTPQLYNNHFFAKGVSDPYMVSVANGGTVPDDVVDSVGEKLQQAFGYYKEKLAEDFDKGFDELMLVDDMTTREYLKRGGPKGEAPKYDFFAIQWMETQNTGTNLFDQAFSESVIDSFDFDNPTKPEWYCIEGGTSLLVDAMKETLVHKVQNNKRVDAISIDLDAPDDGNMSVRIGGKDHSGYSTVFNTTALGCLDRMDLRGLNLHPTQADAIRCLHYDNSTKVALKFSYPWWIKDCGITCGGAASTDLPLRTCVYPSYNLDDTGEAVLLASYTWSQDATRIGSLVKDAPPQPPKEDELVELILQNLARLHAEHMTYEKIKEAYTGVYHAYCWANDPNVGGAFALFGPGQFSNLYPYLMRPAAGGKFHIVGEASSVHHAWIIGSLESAYTAVYQFLYKYKMWDYLRLLLERWQYGLQELETGKHGTAHLQFILGSLPKEYQVKI
notes: Mr 56,000 protein purified from Trichoderma sp; F22844 culture filtrate, identified as L-lysine oxidase
In the case of B1, the “% Stunting” value (southern corn rootworm; [7]) is reported as “NSS”, the “% Stunting” value (southern corn rootworm; [8]) is reported as “NSS” and the “Mean larval wt. (mg) (+SEM)” value (southern corn rootworm; alone or combined) is reported as 0.48 ± 0.04 mg. For the same molecule, the “# of survivors” value (southern corn rootworm; alone or combined) was 46, the “% Stunting” value (southern corn rootworm; [9]) was “NSS” and the specific activity [4] was 37 U/mg protein. For the same molecule, the “# of survivors” value (corn rootworm) was 38 and the “Mean larval wt. (mg) (±SEM)” value (corn rootworm) was 0.76 ± 0.06 mg.

B2: LO69: 69 kDa lysine oxidase proenzyme (SEQ ID NO: 46); corn protoplast extract in Table 20, purified from Saccharomyces cerevisiae in Table 21 (protein)
chain: B1 chain
For B2, the “Lysine oxidase Sp. Act.” value ([5]; BSA) was 12 U/μg protein, the “Fold Difference” value ([5]; BSA, relative to heated gut extract) was 1.2 and the “Lysine oxidase Sp. Act.” value ([5]; corn protoplast extract, gut extract, about 22 hours at 25° C.) was 1292 U/μg protein. The “Lysine oxidase Sp. Act.” value ([5]; gut extract, protease inhibitor) was 997 U/μg protein, the “Fold Difference” value ([5]; gut extract, protease inhibitor, relative to heated gut extract) was 97 and the “Fold Difference” value ([5]; gut extract, relative to LO69 with heated gut extract) was 130. The “Lysine oxidase Sp. Act.” value ([5]; heated gut extract) was 10 U/μg protein, the “Fold Difference” value ([5]; heated gut extract (reference)) was 0 and the “Av. Wght” value ([6]; each protein at 2 ppm) was 2.1 mg. For the same molecule, the Surv ([6]; each protein at 2 ppm, n 18) was 17, the “% inhibition” value [6, 10] was 20% and the Surv ([6]; single protein at 10 ppm) was 17. The “% inhibition” value [6, 11] was 0%, the “Av. Wght” value ([6]; single protein at 10 ppm) was 3.3 mg and the “% inhibition” value ([6]; single protein at 20 ppm) was 0%. For the same molecule, the “Av. Wght” value ([6]; single protein at 20 ppm) was 2.8 mg and the Surv ([6]; single protein at 20 ppm, n 18) was 18.

B3: Mr 50,000: Mr 50,000 protein from F22844, tedanalactam synthase converting Δ1-piperideine-2-carboxylate to tedanalactam (protein)
chain: MADEIYDVVVIGGGPIGLAAAYEAAKEGAKVVVLEQNNFFNHAGSSNDLARMFRTMYTEDYMADLAKEALALWDDLERDSGTPLRWMSGLLNFGDKDYGGDTPEGTLLGPIANLDRLGMTYQELSAKEIEARYPFKNLDPKYIGLFAPDNGLINVQLLLRTLYKLSLDYGATAKQHTKVQAIKPSNHSHYAWDVHAIRHETEAAVFKAKKIIIASGAYVNHVLKPSFDISLDLDIWEMVFSYFNCNAGPKGTIFPSMWFQFAPDKNGRSQLFYGFPALPWGPPNLARIAVDAATRRIKDPNERLTSTINPEDIADTQEFIRNHCVNVDPTIPALTSSCLQTNVFDNMFVLDFVPEKYLNGGAKDSVVVFTAGWAMKFVPMIGKALADMALKGSSPYARKEFAITRTDSATGKGIIVEGGSENRSVKSSAFVFYSPGIRFFVCRLP
In the case of B3, the “% Stunting” value (southern corn rootworm; [7]) is reported as “NSS”, the “% Stunting” value (southern corn rootworm; [8]) is reported as “NSS” and the “Mean larval wt. (mg) (+SEM)” value (southern corn rootworm; alone or combined) is reported as 0.52 ± 0.03 mg. The “# of survivors” value (southern corn rootworm; alone or combined) was 80, the “% Stunting” value (southern corn rootworm; [9]) was “NSS” and the “# of survivors” value (corn rootworm) was 43. For the same molecule, the “Mean larval wt. (mg) (±SEM)” value (corn rootworm) was 0.80 ± 0.07 mg, the “Av. Wght” value ([6]; each protein at 2 ppm) was 3.5 mg and the Surv ([6]; each protein at 2 ppm, n 18) was 18. The “% inhibition” value [6, 10] was 0%, the Surv ([6]; single protein at 10 ppm) was 18 and the “% inhibition” value [6, 11] was 39%. The “Av. Wght” value ([6]; single protein at 10 ppm) was 1.5 mg.
